Source: US20180273587A1 (AILERON THERAPEUTICS, published 2018)
Positions of bridges follow the written chain, without caps; N, C: chain ends. Non-standard residues stand in square brackets, D forms with d. Phe(4-CF3) = N[C@@H](Cc1ccc(C(F)(F)F)cc1)C(=O)O; R8 = C=CCCCCCC[C@@](C)(N)C(=O)O; S5 = C=CCCC[C@](C)(N)C(=O)O

How the values were obtained:
Experiment in all cases: Ki; method not stated; unit not printed (nM per Table 6)
MCL-1 = biological target: T1, MCL-1 (UniProt Q07820 172-327, limits assumed)
T1 construct: Target of the Ki columns; also called Myeloid cell leukemia 1

BCL-2 = biological target: T2, BCL-2 (UniProt P10415 1-217, limits assumed)
T2 construct: Target of the Ki columns

BCL-XL = biological target: T3, BCL-XL (UniProt Q07817 1-209)
T3 construct: Target of the Ki columns
T3 sequence (Q07817 1-209): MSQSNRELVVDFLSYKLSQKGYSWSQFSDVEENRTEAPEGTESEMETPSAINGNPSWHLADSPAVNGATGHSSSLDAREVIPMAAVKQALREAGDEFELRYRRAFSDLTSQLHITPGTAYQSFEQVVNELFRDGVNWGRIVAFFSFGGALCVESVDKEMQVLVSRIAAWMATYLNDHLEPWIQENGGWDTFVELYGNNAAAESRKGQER

T2 sequence (P10415 1-217 limits assumed): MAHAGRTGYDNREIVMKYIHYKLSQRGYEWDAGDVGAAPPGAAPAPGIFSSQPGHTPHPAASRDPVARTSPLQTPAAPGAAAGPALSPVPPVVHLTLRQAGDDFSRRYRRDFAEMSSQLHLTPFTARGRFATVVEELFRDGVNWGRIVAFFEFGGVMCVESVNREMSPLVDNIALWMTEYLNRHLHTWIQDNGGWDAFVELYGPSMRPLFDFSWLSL
T1 sequence (Q07820 172-327 limits assumed): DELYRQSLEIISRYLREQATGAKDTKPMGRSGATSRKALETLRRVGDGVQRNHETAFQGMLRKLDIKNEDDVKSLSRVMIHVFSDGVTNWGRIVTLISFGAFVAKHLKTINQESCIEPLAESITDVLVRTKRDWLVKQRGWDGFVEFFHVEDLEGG

B1: SEQ ID NO: 1739 (peptide)
peptide: Ac-IWIAAALR[R8]IVDAFN[S5]YYA-NH2
modifications: staple 9-16
SMILES: CC[C@H](C)[C@H](NC(C)=O)C(=O)N[C@@H](Cc1c[nH]c2ccccc12)C(=O)N[C@H](C(=O)N[C@@H](C)C(=O)N[C@@H](C)C(=O)N[C@@H](C)C(=O)N[C@@H](CC(C)C)C(=O)N[C@@H](CCCNC(=N)N)C(=O)N[C@]1(C)CCCCCCC=CCCC[C@@](C)(C(=O)N[C@@H](Cc2ccc(O)cc2)C(=O)N[C@@H](Cc2ccc(O)cc2)C(=O)N[C@@H](C)C(N)=O)NC(=O)[C@H](CC(N)=O)NC(=O)[C@H](Cc2ccccc2)NC(=O)[C@H](C)NC(=O)[C@H](CC(=O)O)NC(=O)[C@H](C(C)C)NC(=O)[C@H]([C@@H](C)CC)NC1=O)[C@@H](C)CC
Which Ki (MCL-1) does the source give for B1 here?
Its Ki is 104 nM.

What about the Ki (BCL-2) of the same binder?
Its Ki is 120 nM.

And the Ki (BCL-XL)?
Its Ki is 140 nM.

B2: SEQ ID NO: 1740 (peptide)
peptide: Ac-IWIAAALR[R8]IGEAFN[S5]YYA-NH2
modifications: staple 9-16
SMILES: CC[C@H](C)[C@H](NC(C)=O)C(=O)N[C@@H](Cc1c[nH]c2ccccc12)C(=O)N[C@H](C(=O)N[C@@H](C)C(=O)N[C@@H](C)C(=O)N[C@@H](C)C(=O)N[C@@H](CC(C)C)C(=O)N[C@@H](CCCNC(=N)N)C(=O)N[C@]1(C)CCCCCCC=CCCC[C@@](C)(C(=O)N[C@@H](Cc2ccc(O)cc2)C(=O)N[C@@H](Cc2ccc(O)cc2)C(=O)N[C@@H](C)C(N)=O)NC(=O)[C@H](CC(N)=O)NC(=O)[C@H](Cc2ccccc2)NC(=O)[C@H](C)NC(=O)[C@H](CCC(=O)O)NC(=O)CNC(=O)[C@H]([C@@H](C)CC)NC1=O)[C@@H](C)CC
For B2, which Ki (MCL-1) is on record?
The Ki was 63.6 nM.

And the Ki (BCL-2)?
Its Ki is 142 nM.

What about the Ki (BCL-XL) of the same binder?
The Ki was 135 nM.

B3: SEQ ID NO: 1741 (peptide)
peptide: Ac-IWIAAALR[R8]IGDAGN[S5]YYA-NH2
modifications: staple 9-16
SMILES: CC[C@H](C)[C@H](NC(C)=O)C(=O)N[C@@H](Cc1c[nH]c2ccccc12)C(=O)N[C@H](C(=O)N[C@@H](C)C(=O)N[C@@H](C)C(=O)N[C@@H](C)C(=O)N[C@@H](CC(C)C)C(=O)N[C@@H](CCCNC(=N)N)C(=O)N[C@]1(C)CCCCCCC=CCCC[C@@](C)(C(=O)N[C@@H](Cc2ccc(O)cc2)C(=O)N[C@@H](Cc2ccc(O)cc2)C(=O)N[C@@H](C)C(N)=O)NC(=O)[C@H](CC(N)=O)NC(=O)CNC(=O)[C@H](C)NC(=O)[C@H](CC(=O)O)NC(=O)CNC(=O)[C@H]([C@@H](C)CC)NC1=O)[C@@H](C)CC
For B3, which Ki (MCL-1) is on record?
The Ki was 29.7 nM.

And the Ki (BCL-2)?
The Ki was 145 nM.

What about the Ki (BCL-XL) of the same binder?
The Ki was 171 nM.

B4: SEQ ID NO: 1744 (peptide)
peptide: Ac-IWIAQALR[R8]IGDA[Phe(4-CF3)]N[S5]YYA-NH2
modifications: staple 9-16
SMILES: CC[C@H](C)[C@H](NC(C)=O)C(=O)N[C@@H](Cc1c[nH]c2ccccc12)C(=O)N[C@H](C(=O)N[C@@H](C)C(=O)N[C@@H](CCC(N)=O)C(=O)N[C@@H](C)C(=O)N[C@@H](CC(C)C)C(=O)N[C@@H](CCCNC(=N)N)C(=O)N[C@]1(C)CCCCCCC=CCCC[C@@](C)(C(=O)N[C@@H](Cc2ccc(O)cc2)C(=O)N[C@@H](Cc2ccc(O)cc2)C(=O)N[C@@H](C)C(N)=O)NC(=O)[C@H](CC(N)=O)NC(=O)[C@H](Cc2ccc(C(F)(F)F)cc2)NC(=O)[C@H](C)NC(=O)[C@H](CC(=O)O)NC(=O)CNC(=O)[C@H]([C@@H](C)CC)NC1=O)[C@@H](C)CC
Which results are given for B4?
Ki (MCL-1): 8.2 nM; Ki (BCL-2): 104 nM; Ki (BCL-XL): 107 nM
